Here are results for three molecules from US20130095104A1 (OMEROS, published 2013).

Experiment [1] concerns the target T1, human Frizzled-10 (FZD10) (human, UniProt Q9ULW2 21-581).
T1 construct: no signal peptide limits are stated; also called FZ10; CD350
T1 sequence: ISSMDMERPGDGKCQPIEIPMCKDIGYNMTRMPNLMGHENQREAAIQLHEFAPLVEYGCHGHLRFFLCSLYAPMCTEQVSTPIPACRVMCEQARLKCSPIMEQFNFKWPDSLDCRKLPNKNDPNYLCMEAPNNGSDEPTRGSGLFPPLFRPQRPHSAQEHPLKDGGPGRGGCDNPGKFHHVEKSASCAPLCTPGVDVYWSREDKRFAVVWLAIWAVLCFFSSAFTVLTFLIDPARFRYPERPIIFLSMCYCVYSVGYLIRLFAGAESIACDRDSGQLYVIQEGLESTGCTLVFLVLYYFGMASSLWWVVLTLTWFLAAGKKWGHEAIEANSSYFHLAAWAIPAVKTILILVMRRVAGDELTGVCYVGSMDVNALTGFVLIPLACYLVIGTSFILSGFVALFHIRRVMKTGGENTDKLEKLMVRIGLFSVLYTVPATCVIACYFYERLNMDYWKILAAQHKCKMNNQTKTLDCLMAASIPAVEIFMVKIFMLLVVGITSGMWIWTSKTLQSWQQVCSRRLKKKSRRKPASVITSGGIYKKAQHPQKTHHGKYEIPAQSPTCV
The experiment can be described thus: saturation binding of recombinant antibody on SYO-1 cells (FZD10+), flow cytometry MFI against Ab (nM). As to the method:
Affinity was determined by measuring saturation binding kinetics of the recombinant antibodies on SYO-1 cells.

For experiment [2], the target named is T1, human Frizzled-10 (FZD10). The experiment is described as follows: saturation binding of recombinant antibody on SYO-1 cells.
In experiment [3] the target is T1, human Frizzled-10 (FZD10). The experiment is described as follows: saturation binding of recombinant antibody on SYO-1 cells; Table 2 comparison with the humanized antibody.
The target in experiment [4] is T1, human Frizzled-10 (FZD10). The experiment is described as follows: saturation binding on SYO-1 cells, flow cytometry; B9L9.3 on SYO-1 cells, Example 1 (FIG. 3). As to the method:
(§1) Recombinant antibodies were generated by cloning PCR-amplified V regions (Cummings et al., 2007 Supra) into a vector that supported expression of human IgG1 in 293F cells. Saturation binding kinetics were determined by either staining FZD10-specific DTLacO cells with various concentrations of fluorescent-labeled soluble antigen, or by staining FZD10-transfected cells or cancer cell lines intrinsically expressing FZD10 with various concentrations of the recombinant chimeric anti-FZD10 mAbs. To assay cell surface FZD10 binding, cells were stained with chimeric mAb clones B9A5 (parent), B9132.2 and B9L9.3 (progeny) or secondary antibody alone, all at concentrations ranging from […] to 800 nM, and analyzed by immunocytofluorimetry.
In general terms: In flow cytometry, cells or beads pass a laser one at a time.

Experiment [5] has as its target T1, human Frizzled-10 (FZD10). The experiment can be described thus: saturation binding on SYO-1 cells, flow cytometry; B9L32.2 on SYO-1 cells. On the procedure: as §1

For orientation: EC50 (read off the curve) means the concentration that produces a half-maximal response. Usually Kd stands for the concentration at which binding is half-saturated.

B1: humanized B9L9.3 antibody (antibody, human IgG1, lambda, V domains shown)
VH: EVQLVESGGGLVQPGGSLRLSCAASGFTFSSFNMFWVRQAPGKGLEWVAGIDDDGSYPNYGSAVKGRATISRDNSKNTLYLQMNSLRAEDTAVYYCAKSGYGGSWGGYIADDIDAWGQGTLVTVSS
VL: ELTQPPSVSVSPGQTARITCSGDGSYAGSYYYGWYQQKPGQAPVTLIYYNNKRPSGIPERFSGSLSGSTNTLTISGVQAEDEADYYCGSADNSGAAFGGGTKLTVLG
notes: Mature humanized heavy chain with human IgG1 constant region and mature humanized light chain with human lambda constant region; also called hB9L9.3; humanized B9L9.3 mAb
In the case of B1, the “EC50 (read off the curve)” value in experiment [1] is roughly 0.2 nM. Moreover, the equilibrium dissociation constant (Kd) in experiment [2] was 0.22 nM.

B2: chimeric anti-FZD10 mAb B9L9.3 (antibody, V domains shown)
VH: AVTLDESGGGLQTPGGALSLVCKASGFTFSSFNMFWVRQEPGKGLEWVAGIDDDGSYPNYGSAVKGRATISRDNGQSTLRLQLNNLRAEDTGTYFCAKSGYGGSWGGYIADDIDAWGHGTEVIVSS
VL: ALTQPASVSANPGETVKITCSGDGSYAGSYYYGWYQQKAPGSAPVTLIYYNNKRPSDIPSRFSGSLSGSTNTLTITGVRADDEAVYFCGSADNSGAAFGAGTTLTVL
notes: also called Chimeric B9L9.3; progeny clone B9L9.3
Turning to B2, the results for the equilibrium dissociation constant (Kd) in experiment [3] and in experiment [4] were 0.16 nM and 0.22 nM, respectively. Also, in experiment [1], the “EC50 (read off the curve)” value is roughly 0.1 nM.

B3: chimeric anti-FZD10 mAb B9L32.2 (antibody, human IgG1, V domains shown)
VH: B2 VH
VL: ALTQPASVSANPGETVKITCSGSDSSYAGSYYYGWYQQKAPGSAPVTLIYYNNKRPSDIPSRFSGSLSGSTNTLTITGVRADDEAVYFCGSADNSGAAFGAGTTLTVL
notes: also called progeny clone B9L32.2
The molecule B3 returned a Kd in experiment [5] of 40 nM.
